Test results as given in US11505583B2, “Proteins for the treatment of epithelial barrier function disorders” (Second Genome, Inc., priority 2018, dated 2022).
Where a chain is given by its changes, count along the chain named. Numbers in names are those of the source.

B1: SG-11 (SEQ ID NO:7): Recombinant SG-11 with N-terminal methionine, 233 amino acids, no N-terminal tag (protein)
chain: MLEGEESVVYVGKKGVIASLDVETLDQSYYDETELKSYVDAEVEDYTAEHGKNAVKVESLKVEDGVAKLKMKYKTPEDYTAFNGIELYQGKVVASLAAGYVYDGEFARVEEGKVVGAATKQDIYSEDDLKVAIIRANTDVKVDGEICYVSCQNVKLTGKDSVSIRDGYYLETGSVTASVDVTGQESVGTEQLSGTEQMEMTGEPVNADDTEQTEAAAGDGSFETDVYTFIVYK
B2: SG-11V5: SG-11 variant SEQ ID NO:19 comprising N53S, N83S, C147V, C151S with respect to SEQ ID NO:7 (protein)
chain: B1 chain with N53S, N83S, C147V, C151S

What was measured:
[1] = test system: human colonic epithelial cells (HCT8 enterocytes and HT29-MTX goblet cells) co-cultured with U937 monocytes; assay: In vitro trans-epithelial electrical resistance (TEER) co-culture assay, barrier disruption by heat killed E. coli; format: cell-based; conditions: Example 12; 1 μg/ml (40 nM), 6 hours pre-incubation; HK E. coli alone 78.6%; FIG. 17
Method: Assays were performed as described below in trans-well plates where co-cultures of multiple cell types were performed utilizing a permeable membrane to separate cells. In the apical (top) chamber, human colonic epithelial cells, consisting of a mixture of enterocytes and goblet cells, were cultured until cells obtained tight junction formation and barrier function capacity as assessed by measurement of trans-epithelial electrical resistance (TEER). In the basolateral chamber, monocytes were cultured separately. Epithelial cells were primed with inflammatory cytokines. The assays measured the effect of a therapeutic protein, i.e., SG-11, on epithelial barrier function, muc2 gene expression, and production of cytokines.
Cell culture. The HCT8 human enterocyte cell line (ATCC Cat. No. CCL-244) was maintained in RPMI-1640 medium supplemented with 10% fetal bovine serum, 100 IU/ml penicillin, 100 μg/ml streptomycin, 10 μg/ml gentamicin and 0.25 μg/ml amphotericin (cRPMI). […]
Epithelial cell culture. […] Epithelial cells were trypsinized from culture flasks and viable cells determined by trypan blue counting. […]
Co-culture assay. […] Trans-epithelial electrical resistance (TEER) readings were measured after the IFN-γ treatment and were used as the pre-treatment TEER values. […]

[2] = test system: C57BL/6 mice given 2.5% DSS in drinking water; assay: Therapeutic DSS model of inflammatory bowel disease, treatment after 7 days DSS (Example 5, Example 13B); format: in vivo, mouse; conditions: Example 13B; for LBP in serum (ELISA): 50 nmole/kg i.p. b.i.d. for 4 days after 7 days DSS, FIG. 19B; for Colon length / Colon weight to length ratio: 50 nmole/kg, vs DSS+vehicle; for Colon length: FIG. 22B; for Colon weight to length ratio: p<0.01, FIG. 23B; for Body weight changes: 50 nmoles/kg, day 11, p<0.05, FIG. 20B
Method: In this example, experiments were performed to study the effects of SG-11 in the DSS mouse model when the SG-11 protein is administered to the mice after DSS treatment for 7 days. This differs from the treatment regimen of Example 4 above in which mice were administered SG-11 protein shortly before treatment with DSS.
Eight-week-old male C57BL/6 mice were housed 5 animals per cage and given food and water ad libitum for seven days. Following a 7-day acclimation period, the mice were provided with drinking water containing 2.5% DSS for 7 days. Fresh 2.5% DSS water was prepared every 2 days during the 7 day DSS administration. For this therapeutic DSS study, SG-11 used to treat the animals was fused at its N-terminus to a FLAG Tag (DYKDDDDK; SEQ ID NO:32).
On day 7 normal drinking water was restored and i.p. treatments of 50 nmole/kg of SG-11 (1.3 mg/kg) or Gly2-GLP2 (0.2 mg/kg) were initiated. Treatments were administered twice a day (b.i.d.), with a morning and evening dose (every 8 and 16 hours) for six days.
Body weight was measured daily during the morning treatment. The colon tissue was then harvested and length was measured in centimeters and the tissue was weighed. Fecal material was flushed from the colon and residual PBS removed by gently running the colon tissue through a pair of forceps. The colon tissue was then weighed and colon weight to length ratio in mg/mm was determined. Following weight measurements proximal and distal colon tissue was banked for RNA and protein analysis and the remaining tissues was fixed in 10% neutral buffered formalin for histopathology. Statistical analysis was performed by a one-way ANOVA compared to DSS+vehicle for serum 4KDa-FITC translocation, serum LBP concentrations, colon length, and colon weight to length ratio, while a two-way ANOVA was performed for analysis of body weight. In all analysis, a Fisher's LSD test for multiple comparisons was used. Graphs represent data pooled from two experiments, and are plotted as mean±SEM.
Histopathology analysis was performed on proximal and distal colon tissues from the therapeutic DSS model described above. Proximal (FIG. 13A) and distal (FIG. 13B) colon scores (range 0-4) are presented and as well as the total score for the colon which represents the sum of proximal and distal colon scores (Range 0-8) (FIG. 13C). LMA=Loss of mucosal architecture, Edema=Edema, INF=Inflammation, TMI=Transmural inflammation, MH=Mucosal hyperplasia, DYS=Dysplasia. Graphs represent data pooled from two independent experiments, and are plotted as mean±SEM. Statistical analysis was performed by a one-way ANOVA compared to DSS+vehicle followed by a Fisher's LSD test for multiple comparisons.
In the second experiment (Example 13B), mice were provided with drinking water containing 2.5% DSS for 7 days. On day 7 normal drinking water was restored and i.p. treatments of 50 nmole/kg of SG-11 (SEQ ID NO:7) (1.3 mg/kg), SG-11V5 (SEQ ID NO:19) (1.3 mg/kg), or Gly2-GLP2 (0.2 mg/kg) were initiated. Treatments were administered twice a day (b.i.d.), with a morning and evening dose (every 8 and 16 hours) for 4 days. For both the prophylactic and therapeutic models fresh 2.5% DSS water was prepared every 2 days during the DSS administration.
At the end of each DSS model study, mice were fasted for 4 hours and then orally gavaged with 600 mg/kg 4KDa dextran labeled with fluorescein isothiocyanate (FITC) [4KDa-FITC]. One hour after the 4KDa-FITC gavage mice were euthanized, blood was collected and FITC signal was measured in serum. […] Data in both graphs are plotted as mean±SEM and each figure represent data from an individual experiment (n=10 per group).
Upon completion of the DSS models above, LBP levels were measured as an inflammation centric readout of barrier function following the protocol detailed in Example 5. Upon completion of both DSS models (Examples 13A and 13B) blood was collected and serum was isolated. […]

[3] = Stability in storage buffer formulations by analytical SEC (Example 11); format: physicochemical
Method: Although SG-11 protein is very stable at high temperature, forming aggregations at 37° C. in a week could be the problem at the downstream processing stage. Deamidation of asparagine residues found by LC/MS/MS are also a risk factor. In order to improve the manufacturability of a protein comprising SEQ ID NO:3 or variants thereof, the protein depicted as SG-11 (SEQ ID NO:7) was mutated to contain the following 4 substitutions: N53S, N83S, C147V and C151S. This variant with 4 substitutions is designated as SG-11V5, provided herein as SEQ ID NO:19. The stability of purified SG-11 and SG-11V5 was tested in different storage buffer formulations. SG-11V5 (SEQ ID NO:19) has about 98.3% sequence identity to SEQ ID NO:7.
Specifically, purified SG-11 (SEQ ID NO:7) was incubated in pH 5.2 (FIGS. 15A, 15B and 15C), pH 7.0 (FIGS. 15D, 15E and 15F) and pH 8.0 (FIGS. 15G, 15H and 15I). Effect of additives was also tested at the 3 different pH conditions: 150 mM NaCl (FIGS. 15A, 15D and 15G); 150 mM NaCl and 100 mM arginine (FIGS. 15B, 15E and 15H); and 150 mM NaCl and 0.5 M sorbitol (FIGS. 15C, 15F and 15I). Stability was analyzed by analytical SEC. Arrow heads indicate the retention time of the monomeric form.
SG-11V5 (SEQ ID NO:19) was incubated in pH 5.2 (FIGS. 16A, 16B and 16C), pH 7.0 (FIGS. 16D, 16E and 16F) and pH 8.0 (FIGS. 16G, 16H and 16I). Effect of additives was also tested at the 3 different pH conditions: 150 mM NaCl (FIGS. 16A, 16D and 16G); 150 mM NaCl and 100 mM Arg (FIGS. 16B, 16E and 16H); and 150 mM NaCl and 0.5 M sorbitol (FIGS. 16C, 16F and 16I). Stability was analyzed by analytical SEC. Arrow heads indicate the retention time of the monomeric form.

| Molecule | TEER after HK E. coli (normalized, relative to untreated samples) [1] | LBP in serum (ELISA) [2] | Colon length [2] | Colon weight to length ratio [2] | Body weight changes [2] | Aggregate formation (analytical SEC) ([3]; 100 mM arginine at pH 7.0 (150 mM NaCl), FIG. 15) | Behaviour at pH 5.2 [3] | Aggregation (analytical SEC) ([3]; all conditions tested: pH 5.2, 7.0, 8.0, 150 mM NaCl ± 100 mM arginine or 0.5 M sorbitol, FIG. 16) | Stability compared with SG-11 ([3]; pH 7.0 and pH 8.0) | Small aggregation peak at 1.34 mL (analytical SEC) ([3]; with 100 mM arginine or 0.5 M sorbitol) |
| --- | --- | --- | --- | --- | --- | --- | --- | --- | --- | --- |
| B1 | 89.5% | no reduction in LBP | significant increase in the colon length | significantly improved colon weight to length ratios | statistically improved body weight changes | greatly suppressed | precipitated |  |  |  |
| B2 | 89.1% | no reduction in LBP | significant increase in the colon length | significantly improved colon weight to length ratios | statistically improved body weight changes |  | precipitated | did not show large amount of aggregation | improved stability | suppressed |
